The assay concerns the target Citrobacter sp. RHBSTW-00271 Ubl3 (Citrobacter sp. RHBSTW-00271). Description: SEC-MALS. For orientation: In gel filtration, larger molecules generally elute earlier.

In general, stoichiometry N refers to a count of units in the complex or per binding partner. As to “Citrobacter sp. RHBSTW-00271 Ubl3 (domain or fragment)”, the stoichiometry N is 2.
